The record followed here is US20020146805.

The target of one data set is T1, H-D-Lys(CBO)-Pro-Arg-pNA.
T1 chain: KPR

A further data set deals with T2, H-D-Pro-HHT-Arg-pNA.
T2 chain: PXR

In data set [1] the target is T3, Meo-Suc-Ala-Ala-Pro-Val-pNA.
T3 chain: AAPV

The target in the next data set is T4, Suc-Ala-Ala-Pro-Phe-pNA.
T4 chain: AAPF

B1: PFEK-protease T-6xHIS zymogen (protein)
chain: MDSKGSSQKSRLLLLLVVSNLLLCQGVVSDYKDDDDVDAAALAAPFDDDDKIVGGYALEEGEWPWQVSIQRNGSHFCGGSLIAEQWVLTAAHCFRNTSETSLYQVLLGARQLVQPGPHAMYARVRQVESNPLYQGTASSADVALVELEAPVPFTNYILPVCLPDPSVIFETGMNCWVTGWGSPSEEDLLPEPRILQKLAVPIIDTPKCNLLYSKDTEFGYQPKTIKNDMLCAGFEEGKKDACKGDSGGPLVCLVGQSWLQAGVISWGEGCARQNRPGVYIRVTAHHNWIHRIIPKLQFQPARLGGQKSRHHHHHH
As for B1, the chromogenic amidolytic activity entry (with H-D-Lys(CBO)-Pro-Arg-pNA; with H-D-Pro-HHT-Arg-pNA; in data set [1]; with Suc-Ala-Ala-Pro-Phe-pNA) was “No measurable chromogenic amidolytic activity was detected” in each case.

B2: activated protease T-6xHIS (protein)
chain: B1 chain
As to B2, the Specific Activity (amidolytic, release of pNA) (nmole pNA produced/min/ug protein) amounted to 0.057 with H-D-Lys(CBO)-Pro-Arg-pNA and 0.01 in the data set with H-D-Pro-HHT-Arg-pNA.
